Data taken from patent publication US20070036810A1, “Cyclic amp response element activator proteins and uses related thereto” (priority 2003, published 2007).
“Also recorded” adds a separate entry of the source.

B1: K4: CREAP1 fragment, amino acids 1-580, SEQ ID NO 35, Flag fusion (protein)
chain: MATSNNPRKFSEKIALHNQKQAEETAAFEEVMKDLSLTRAARLQLQKSQYLQLGPSRGQYYGGSLPNVNQIGSGTMDLPFQPSGFLGEALAAAPVSLTPFQSSGLDTSRTTRHHGLVDRVYRERGRLGSPHRRPLSVDKHGRQADSCPYGTMYLSPPADTSWRRTNSDSALHQSTMTPTQPESFSSGSQDVHQKRVLLLTVPGMEETTSEADKNLSKQAWDTKKTGSRPKSCEVPGINIFPSADQENTTALIPATHNTGGSLPDLTNIHFPSPLPTPLDPEEPTFPALSSSSSTGNLAANLTHLGIGGAGQGMSTPGSSPQHRPAGVSPLSLSTEARRQQASPTLSPLSPITQAVAMDALSLEQQLPYAFFTQAGSQQPPPQPQPPPPPPPASQQPPPPPPPQAPVRLPPGGPLLPSASLTRGPQPPPLAVTVPSSLPQSPPENPGQPSMGIDIASAPALQQYRTSAGSPANQSPTSPVSNQGFSPGSSPQHTSTLGSVFGDAYYEQQMAARQANALSHQLEQFNMMENAISSSSLYSPGSTLNYSQAAMMGLTGSHGSLPDSQQLGYASHSGIPNIILT
modifications: Flag tag; human
B2: K2: CREAP1 fragment, amino acids 1-356, SEQ ID NO 33, Flag fusion (protein)
chain: MATSNNPRKFSEKIALHNQKQAEETAAFEEVMKDLSLTRAARLQLQKSQYLQLGPSRGQYYGGSLPNVNQIGSGTMDLPFQPSGFLGEALAAAPVSLTPFQSSGLDTSRTTRHHGLVDRVYRERGRLGSPHRRPLSVDKHGRQADSCPYGTMYLSPPADTSWRRTNSDSALHQSTMTPTQPESFSSGSQDVHQKRVLLLTVPGMEETTSEADKNLSKQAWDTKKTGSRPKSCEVPGINIFPSADQENTTALIPATHNTGGSLPDLTNIHFPSPLPTPLDPEEPTFPALSSSSSTGNLAANLTHLGIGGAGQGMSTPGSSPQHRPAGVSPLSLSTEARRQQASPTLSPLSPITQAVA
modifications: Flag tag; human
B3: K5: CREAP1 fragment, amino acids 170-650, SEQ ID NO 36, Flag fusion (protein)
chain: ALHQSTMTPTQPESFSSGSQDVHQKRVLLLTVPGMEETTSEADKNLSKQAWDTKKTGSRPKSCEVPGINIFPSADQENTTALIPATHNTGGSLPDLTNIHFPSPLPTPLDPEEPTFPALSSSSSTGNLAANLTHLGIGGAGQGMSTPGSSPQHRPAGVSPLSLSTEARRQQASPTLSPLSPITQAVAMDALSLEQQLPYAFFTQAGSQQPPPQPQPPPPPPPASQQPPPPPPPQAPVRLPPGGPLLPSASLTRGPQPPPLAVTVPSSLPQSPPENPGQPSMGIDIASAPALQQYRTSAGSPANQSPTSPVSNQGFSPGSSPQHTSTLGSVFGDAYYEQQMAARQANALSHQLEQFNMMENAISSSSLYSPGSTLNYSQAAMMGLTGSHGSLPDSQQLGYASHSGIPNIILTVTGESPPSLSKELTSSLAGVGDVSFDSDSQFPLDELKIDPLTLDGLHMLNDPDMVLADPATEDTFRMDRL
modifications: Flag tag; human
B4: K3: CREAP1 fragment, amino acids 1-494, SEQ ID NO 34, Flag fusion (protein)
chain: MATSNNPRKFSEKIALHNQKQAEETAAFEEVMKDLSLTRAARLQLQKSQYLQLGPSRGQYYGGSLPNVNQIGSGTMDLPFQPSGFLGEALAAAPVSLTPFQSSGLDTSRTTRHHGLVDRVYRERGRLGSPHRRPLSVDKHGRQADSCPYGTMYLSPPADTSWRRTNSDSALHQSTMTPTQPESFSSGSQDVHQKRVLLLTVPGMEETTSEADKNLSKQAWDTKKTGSRPKSCEVPGINIFPSADQENTTALIPATHNTGGSLPDLTNIHFPSPLPTPLDPEEPTFPALSSSSSTGNLAANLTHLGIGGAGQGMSTPGSSPQHRPAGVSPLSLSTEARRQQASPTLSPLSPITQAVAMDALSLEQQLPYAFFTQAGSQQPPPQPQPPPPPPPASQQPPPPPPPQAPVRLPPGGPLLPSASLTRGPQPPPLAVTVPSSLPQSPPENPGQPSMGIDIASAPALQQYRTSAGSPANQSPTSPVSNQGFSPGSSPQHTS
modifications: Flag tag; human

Tested on: pCRE-Luc reporter (cyclic AMP response element)
Experiment: pCRE-Luc reporter assay of CREAP1 deletion fragments in Hela cells
Assay type: cell-based
Details: for Activity: Flag-CREAP1 deletion constructs co-transfected with pCRE-Luc in Hela cells, Dual-Glo Luciferase 40 hrs after transfection
Procedure: CREAP1 protein amino acids 1-170, 1-356, […], 1-580 and 170-650 are inserted into pFlag-CMV4 expression vector (Sigma, St. Louis, Mo.) by utilizing PCR strategy familiar to one of skill in the art. 10^4 Hela cells are split into each well of 96 well tissue culture plates. Cells are transfected 16 hours later with 100 ng of pCRE-Luc reporter construct, 30 ng of Renilla luciferase control plasmid together with 100 ng of pCMVSPORT6, pCMVSPORT-CREAP1 and different Flag-CREAP1 deletion fusion constructs respectively. Transfection is done with Fugene6 reagent (Roche Applied Biosciences) following the manufacturer's instructions. A Dual-Glo Luciferase assay (Promega) is conducted 40 hrs after transfection. Firefly luciferase counts are normalized to Renilla luciferase and plotted.
To dissect the functional domains within the CREAP1 molecule, CREAP1 protein fragments of amino acids 1-170, 1-356, 1-494, 1-580 and 170-650 were subcloned into pFlag-CMV4 vector by utilizing PCR based strategy and tested for function in a Dual Glo Luciferase assay as described above.

| Molecule | Activity | reduction of functional activity of CREAP1 (K2 compared with K4 (removal of amino acids 356-580)) | Activity (listed as KS) |
| --- | --- | --- | --- |
| B1 | retains almost all wild type activity; also recorded: Fully active |  |  |
| B2 | Inactive | 10 fold |  |
| B3 | lacked almost all stimulating activity |  | Inactive |
| B4 | Partially Active |  |  |
